The assay deals with 2526 IgG3. Kind of assay: ELISA. The note with it: read at the highest mAb concentration, 10 µg/ml; parent: est. 4.0; read off a plot. (In general: An ELISA detects its analyte on a solid surface through an enzyme-linked reagent.)

With “BG505.SOSIP with a glycan at position 332 (Fig 5C) N332T”, the response was 3.1 Abs (450nm).

For the origin of these results see publication PMC11410209.
